Test results: IntAct's records for PubMed 19853560

B1: Phosphatidylinositol 3,4,5-trisphosphate 3-phosphatase and dual-specificity protein phosphatase daf-18 (Caenorhabditis elegans), G5EE01 (parent)
chain: MVTPPPDVPSTSTRSMARDLQENPNRQPGEPRVSEPYHNSIVERIRHIFRTAVSSNRCRTEYQNIDLDCAYITDRIIAIGYPATGIEANFRNSKVQTQQFLTRRHGKGNVKVFNLRGGYYYDADNFDGNVICFDMTDHHPPSLELMAPFCREAKEWLEADDKHVIAVHCKAGKGRTGVMICALLIYINFYPSPRQILDYYSIIRTKNNKGVTIPSQRRYIYYYHKLRERELNYLPLRMQLIGVYVERPPKTWGGGSKIKVEVGNGSTILFKPDPLIISKSNHQRERATWLNNCDTPNEFDTGEQKYHGFVSKRAYCFMVPEDAPVFVEGDVRIDIREIGFLKKFSDGKIGHVWFNTMFACDGGLNGGHFEYVDKTQPYIGDDTSIGRKNGMRRNETPMRKIDPETGNEFESPWQIVNPPGLEKHITEEQAMENYTNYGMIPPRYTISKILHEKHEKGIVKDDYNDRKLPMGDKSYTESGKSGDIRGVGGPFEIPYKAEEHVLTFPVYEMDRALKSKDLNNGMKLHVVLRCVDTRDSKMMEKSEVFGNLAFHNESTRRLQALTQMNPKWRPEPCAFGSKGAEMHYPPSVRYSSNDGKYNGACSENLVSDFFEHRNIAVLNRYCRYFYKQRSTSRSRYPRKFRYCPLIKKHFYIPADTDDVDENGQPFFHSPEHYIKEQEKIDAEKAAKGIENTGPSTSGSSAPGTIKKTEASQSDKVKPATEDELPPARLPDNVRRFPVVGVDFENPEEESCEHKTVESIAGFEPLEHLFHESYHPNTAGNMLRQDYHTDSEVKIAEQEAKAFVDQLLNGQGVLQEFMKQFKVPSDNSFADYVTGQAEVFKAQIALLEQSEDFQRVQANAEEVDLEHTLGEAFERFGHVVEESNGSSKNPKALKTREQMVKETGKDTQKTRNHVLLHLEANHRVQIERRETCPELHPEDKIPRIAHFSENSFSDSNFDQAIYL
partner: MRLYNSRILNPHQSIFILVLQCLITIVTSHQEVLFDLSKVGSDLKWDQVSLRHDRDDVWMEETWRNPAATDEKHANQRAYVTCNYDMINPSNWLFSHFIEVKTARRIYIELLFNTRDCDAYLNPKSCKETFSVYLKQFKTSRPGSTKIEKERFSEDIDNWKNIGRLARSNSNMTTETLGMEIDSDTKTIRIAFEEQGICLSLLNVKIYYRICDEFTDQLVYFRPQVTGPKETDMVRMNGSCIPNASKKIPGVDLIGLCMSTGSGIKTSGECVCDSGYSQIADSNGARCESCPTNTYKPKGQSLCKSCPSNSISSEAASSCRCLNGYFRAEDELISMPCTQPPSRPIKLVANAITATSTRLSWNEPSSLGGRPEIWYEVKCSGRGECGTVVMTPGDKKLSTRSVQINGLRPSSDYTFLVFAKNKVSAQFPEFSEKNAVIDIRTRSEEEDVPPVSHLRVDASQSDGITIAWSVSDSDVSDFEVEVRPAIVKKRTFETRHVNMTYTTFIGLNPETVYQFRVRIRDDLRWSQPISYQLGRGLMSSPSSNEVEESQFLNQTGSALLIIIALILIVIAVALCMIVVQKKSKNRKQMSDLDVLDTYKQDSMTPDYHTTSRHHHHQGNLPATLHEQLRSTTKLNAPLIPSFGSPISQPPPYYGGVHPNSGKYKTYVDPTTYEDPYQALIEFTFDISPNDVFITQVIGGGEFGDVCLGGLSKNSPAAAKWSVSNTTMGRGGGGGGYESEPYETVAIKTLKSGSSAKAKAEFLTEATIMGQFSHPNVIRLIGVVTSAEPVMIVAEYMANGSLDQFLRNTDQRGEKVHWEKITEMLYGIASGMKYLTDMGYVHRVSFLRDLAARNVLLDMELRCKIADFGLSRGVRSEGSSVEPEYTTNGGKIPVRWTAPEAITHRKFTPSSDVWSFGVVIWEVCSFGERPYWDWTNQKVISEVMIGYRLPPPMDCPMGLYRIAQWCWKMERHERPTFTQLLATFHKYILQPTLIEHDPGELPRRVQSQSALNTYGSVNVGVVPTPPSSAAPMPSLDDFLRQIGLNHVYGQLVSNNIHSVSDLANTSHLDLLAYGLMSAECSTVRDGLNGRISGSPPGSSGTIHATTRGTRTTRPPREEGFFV

Variants of: B1
Conditions: with vab1_caeel vab-1, O61460

Variant | effect of a mutation on the interaction
D137A | increasing interaction
